Data taken from publication PMC3032569 (The Biochemical journal, 2009).
Where no end group is shown, it is not given here.

Molecular target: T1, E. coli TonB C-terminal domain (TonB CTD, residues 103-239) (E. coli, UniProt P02929 103-239)
T1 sequence (looked up): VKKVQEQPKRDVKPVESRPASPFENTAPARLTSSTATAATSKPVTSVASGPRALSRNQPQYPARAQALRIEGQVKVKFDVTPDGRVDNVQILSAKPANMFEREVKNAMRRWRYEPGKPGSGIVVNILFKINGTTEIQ
Assay: NMR titration

Q: Does Ac-EDTITVTAAP [FhuA TonB box peptide] bind?
A: binds
